Measured values taken from patent US20190389951A1 (Regeneron, published 2019).

B1: bs16430D (bispecific antibody, V domains shown)
VH 1: EVQLVESGGGLVQPGGSLRLSCAASGFTFSTYAMTWVRQAPGKGLEWVSFISGSGDNTYYADSVKGRFTISRDNSKNTLYLQMNSLRADDSAIYHCAKDSGYCSSGGCSLYFYYGMDVWGQGTTVTVSS
VH 2: QVQLVESGGGVVQPGRSLRLSCAASGFTFSSYGMHWVRQAPGKGLEWVAVISYAGNNKYYADSVKGRFTVSRDNSKKTLYLQMNSLRSEDTAVYYCAKDSYYDFLTDPDVLDIWGQGTMVTVSS
VL: not shown
notes: two distinct heavy chains with a common light chain; also called anti-PSMA×CD28 bispecific antibody; PSMA × CD28 monoclonal antibody
B2: bs16431D (bispecific antibody, V domains shown)
VH 1: B1 VH 2
VH 2: EVQLVESGGGLVQPGGSLRLSCAASGFTFSRNNMHWVRQAPGKGLEYVSGISSNGGRTYYADSVKGRFTISRDNSKNTLYLQMGGLRAADMAVYFCTRDDELLSFDYWGQGTLVTVSS
VL: not shown
notes: as for B1
B3: bs16429D (bispecific antibody, human IgG4 S228P, kappa)
heavy 1: QVQLQESGPGLVKPSETLSLTCTVSGGSISSYYWSWIRQPPGKGLEWIGYIYYSGITHYNPSLKSRVTISVDTSKIQFSLKLSSVTAADTAVYYCARWGVRRDYYYYGMDVWGQGTTVTVSSASTKGPSVFPLAPCSRSTSESTAALGCLVKDYFPEPVTVSWNSGALTSGVHTFPAVLQSSGLYSLSSVVTVPSSSLGTKTYTCNVDHKPSNTKVDKRVESKYGPPCPPCPAPPVAGPSVFLFPPKPKDTLMISRTPEVTCVVVDVSQEDPEVQFNWYVDGVEVHNAKTKPREEQFNSTYRVVSVLTVLHQDWLNGKEYKCKVSNKGLPSSIEKTISKAKGQPREPQVYTLPPSQEEMTKNQVSLTCLVKGFYPSDIAVEWESNGQPENNYKTTPPVLDSDGSFFLYSRLTVDKSRWQEGNVFSCSVMHEALHNRFTQKSLSLSPGK
heavy 2: QVQLVESGGGVVQPGRSLRLSCAASGFTFSSYGMHWVRQAPGKGLEWVAFMSYDGSNKFYSDSVKGRFTISRDNSRKMLFLQMNNLRAEDTAVYYCARDQYYDFLTDHGVFDYWGQGTLVTVSSASTKGPSVFPLAPCSRSTSESTAALGCLVKDYFPEPVTVSWNSGALTSGVHTFPAVLQSSGLYSLSSVVTVPSSSLGTKTYTCNVDHKPSNTKVDKRVESKYGPPCPPCPAPPVAGPSVFLFPPKPKDTLMISRTPEVTCVVVDVSQEDPEVQFNWYVDGVEVHNAKTKPREEQFNSTYRVVSVLTVLHQDWLNGKEYKCKVSNKGLPSSIEKTISKAKGQPREPQVYTLPPSQEEMTKNQVSLTCLVKGFYPSDIAVEWESNGQPENNYKTTPPVLDSDGSFFLYSRLTVDKSRWQEGNVFSCSVMHEALHNHYTQKSLSLSLGK
light: not shown
notes: also called anti-PSMA×CD28 bispecific antibody; PSMA × CD28 monoclonal antibody
B4: mAb14226P2 (antibody, V domains shown)
VH: QVQLQESGPGLVKPSETLSLTCTVSGGSISSYYWSWIRQPPGKGLEWIGYIYYSGITHYNPSLKSRVTISVDTSKIQFSLKLSSVTAADTAVYYCARWGVRRDYYYYGMDVWGQGTTVTVSS
VL: not shown
notes: Bivalent parental anti-CD28 antibody; also called anti-CD28 monoclonal antibody
B5: mAb14216P2 (antibody, V domains shown)
VH: B2 VH 2
VL: not shown
notes: as for B4
B6: mAb11838P2 (antibody, V domains shown)
VH: QVQLVESGGGVVQPGRSLRLSCAASGFTFSSYGMHWVRQAPGKGLEWVAFMSYDGSNKFYSDSVKGRFTISRDNSRKMLFLQMNNLRAEDTAVYYCARDQYYDFLTDHGVFDYWGQGTLVTVSS
VL: not shown
notes: Bivalent parental anti-PSMA antibody; also called anti-PSMA monoclonal antibody; mAb11838P2 (PSMA)

Key:
[1] = molecular target: T1, human PSMA on cells (C4-2, 22RV1, HEK293/hCD20/hPSMA) (human, UniProt Q04609 1-750); assay: electrochemiluminescence cell binding (MSD)
T1 construct: C4-2 and 22RV1 express PSMA endogenously; also called FOLH1

[2] = molecular target: T2, human CD28 on cells (HEK293/hCD28 cells, human T cells, engineered reporter T-cells) (human, UniProt P10747 19-220); assay: electrochemiluminescence cell binding (MSD)
T2 construct: primary human T cells carry it naturally

[3] = molecular target: T2, human CD28 on cells (HEK293/hCD28 …); assay: cell-based or functional assay
[4] = molecular target: T1, human PSMA on cells (C4-2, 22RV1, …); assay: electrochemiluminescence cell binding (MSD), C4-2 cells
[5] = molecular target: T2, human CD28 on cells (HEK293/hCD28 …); assay: cell-based or functional assay; remark: listed apart in the source
[6] = molecular target: T2, human CD28 on cells (HEK293/hCD28 …); assay: cell-based or functional assay; remark: listed apart in the source
[7] = molecular target: T2, human CD28 on cells (HEK293/hCD28 …); assay: electrochemiluminescence cell binding (MSD), HEK293-hCD28 cells
[8] = molecular target: T1, human PSMA on cells (C4-2, 22RV1, …); assay: electrochemiluminescence cell binding (MSD), C4-2 cells; concentrations above 11.1 nM excluded
[9] = molecular target: T3, 6h.hPSMA (recombinant Human PSMA/FOLH1 Protein, R&D, Catalog #4234-ZN) (human, UniProt Q04609 44-750); assay: SPR (Biacore T-200), antibody captured on anti-human Fc, 6h.hPSMA injected, 25 C
T3 construct: Bought protein; also called hPSMA.6H; hPSMA with an N-terminal polyhistidine tag; not shown: N-terminal polyhistidine (6-His) tag

[10] = molecular target: T2, human CD28 on cells (HEK293/hCD28 …); assay: flow cytometry, human CD2+ T cells
[11] = molecular target: T1, human PSMA on cells (C4-2, 22RV1, …); assay: flow cytometry, 22RV1 cells
[12] = molecular target: T2, human CD28 on cells (HEK293/hCD28 …); assay: flow cytometry, human CD4+ T cells
[13] = molecular target: T2, human CD28 on cells (HEK293/hCD28 …); assay: flow cytometry, human CD8+ T cells
[14] = molecular target: T1, human PSMA on cells (C4-2, 22RV1, …); assay: flow cytometry, C4-2 cells
[15] = molecular target: T4, hCD28.mmh (hCD28 ecto (N19-P152).mmh) (human); assay: SPR (Biacore T-200), antibody captured on anti-human Fc, hCD28.mmh injected, 25 C
T4 construct: also called REGN2011

[16] = molecular target: T4, hCD28.mmh (hCD28 ecto (N19-P152).mmh); assay: SPR (Biacore), captured antibody, soluble hCD28 injected, 37 C
[17] = molecular target: T3, 6h.hPSMA (recombinant Human PSMA/FOLH1 …); assay: SPR (Biacore), captured antibody, 20 nM hPSMA.6H row, 37 C
[18] = molecular target: T1, human PSMA on cells (C4-2, 22RV1, …); assay: flow cytometry (FACS binding), MFI_APC against antibody concentration; the sheet does not name the cells; legend paragraph 55: cancer cell lines with endogenous PSMA; unit taken from the axis Log10 (M)
[19] = molecular target: T3, 6h.hPSMA (recombinant Human PSMA/FOLH1 …); assay: SPR (Biacore), captured antibody, 10 nM hPSMA.6H row, 37 C
[20] = molecular target: T1, human PSMA on cells (C4-2, 22RV1, …); assay: electrochemiluminescence cell binding (MSD), supplemental experiment, C4-2 P-7 cells

T1 sequence (Q04609 whole entry): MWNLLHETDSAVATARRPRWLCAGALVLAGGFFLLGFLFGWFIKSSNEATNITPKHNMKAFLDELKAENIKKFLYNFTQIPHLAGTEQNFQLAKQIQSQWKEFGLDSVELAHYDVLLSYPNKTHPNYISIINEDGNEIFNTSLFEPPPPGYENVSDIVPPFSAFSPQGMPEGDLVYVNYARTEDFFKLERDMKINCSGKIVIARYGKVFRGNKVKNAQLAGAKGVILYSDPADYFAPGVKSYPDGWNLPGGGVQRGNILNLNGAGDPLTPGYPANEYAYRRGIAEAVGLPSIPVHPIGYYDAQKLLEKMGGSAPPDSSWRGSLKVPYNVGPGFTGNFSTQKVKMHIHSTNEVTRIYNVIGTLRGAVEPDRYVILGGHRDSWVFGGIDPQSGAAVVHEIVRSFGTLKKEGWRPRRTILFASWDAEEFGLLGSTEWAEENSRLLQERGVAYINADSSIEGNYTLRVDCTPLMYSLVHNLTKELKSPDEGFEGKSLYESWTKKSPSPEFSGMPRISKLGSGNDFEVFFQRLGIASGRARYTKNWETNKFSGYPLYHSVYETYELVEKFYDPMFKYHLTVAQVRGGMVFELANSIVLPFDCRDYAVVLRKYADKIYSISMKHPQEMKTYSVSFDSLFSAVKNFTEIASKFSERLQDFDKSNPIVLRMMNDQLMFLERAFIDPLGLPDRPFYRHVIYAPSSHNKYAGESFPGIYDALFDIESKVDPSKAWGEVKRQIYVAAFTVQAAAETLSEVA
T3 sequence (Q04609 44-750 limits assumed): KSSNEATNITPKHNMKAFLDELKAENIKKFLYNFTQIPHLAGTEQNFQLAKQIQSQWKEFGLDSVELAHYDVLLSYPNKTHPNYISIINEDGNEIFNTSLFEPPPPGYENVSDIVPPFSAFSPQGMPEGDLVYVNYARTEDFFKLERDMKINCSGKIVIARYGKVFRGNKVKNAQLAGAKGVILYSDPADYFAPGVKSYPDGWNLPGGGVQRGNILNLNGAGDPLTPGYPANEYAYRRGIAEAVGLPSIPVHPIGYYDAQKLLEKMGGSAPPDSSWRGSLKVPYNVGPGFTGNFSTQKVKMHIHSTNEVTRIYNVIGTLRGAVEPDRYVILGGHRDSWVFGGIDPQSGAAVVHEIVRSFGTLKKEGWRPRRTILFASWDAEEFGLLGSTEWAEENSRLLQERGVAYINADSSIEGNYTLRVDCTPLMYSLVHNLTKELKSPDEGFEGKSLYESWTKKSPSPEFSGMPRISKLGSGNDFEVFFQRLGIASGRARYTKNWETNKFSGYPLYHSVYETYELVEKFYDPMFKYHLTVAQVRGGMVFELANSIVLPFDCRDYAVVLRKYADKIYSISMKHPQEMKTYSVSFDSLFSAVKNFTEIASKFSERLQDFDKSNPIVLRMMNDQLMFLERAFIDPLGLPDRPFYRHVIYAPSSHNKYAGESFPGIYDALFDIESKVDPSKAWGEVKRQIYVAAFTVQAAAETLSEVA

Binder | ratio of binding signal (RLU) C4-2/HEK293HZ at 11.1 nM [1] [fold] | ratio of binding signal (RLU) HEK293-hCD28/HEK293HZ at 11.1 nM [2] [fold] | NFκB-luciferase EC50, reporter T-cells + HEK293/hCD20/hPSMA, 50 pM anti-CD3×CD20 [3] [M] | EC50 [4] [nM] | IL-2 production EC50, primary CD4+ T-cells + HEK293/hCD20/hPSMA, 50 pM anti-CD3×CD20 [5] [M] | EC50 [7] [nM] | EC50 [8] [nM] | Kd [9] [nM] | T½ (dissociative half-life) [9] [min] | EC50 [10] [nM] | EC50 [11] [nM] | EC50 [12] [nM] | EC50 [13] [nM] | EC50 [14] [nM] | Kd [15] [nM] | T½ (dissociative half-life) [15] [min] | binding result [9] | also measured
B1 | 10 | 41 | 4.57e-10 | 5.24 | 1.5e-10 | 8.47 | – | – | – | – | – | – | – | – | – | – | – | NFκB-luciferase fold induction, reporter T-cells + HEK293/hCD20, 50 pM anti-CD3×CD20 [3]: 0.92 fold; NFκB-luciferase fold induction, reporter T-cells + HEK293/hCD20/hPSMA, 50 pM anti-CD3×CD20 [3]: 13.6 fold; IL-2 production fold induction, primary CD4+ T-cells + HEK293/hCD20, 50 pM anti-CD3×CD20 [5]: 1 fold; IL-2 production fold induction, primary CD4+ T-cells + HEK293/hCD20/hPSMA, 50 pM anti-CD3×CD20 [5]: 165 fold; NFκB-luciferase fold induction, reporter T-cells + HEK293/hCD20, 50 pM hIgG4 isotype control (no TCR stimulation) [6]: 0.87 fold; NFκB-luciferase fold induction, reporter T-cells + HEK293/hCD20/hPSMA, 50 pM hIgG4 isotype control (no TCR stimulation) [6]: 0.89 fold
B2 | – | – | 2.78e-10 | – | 2.2e-10 | 5.31 | 0.35 | 0.137 | 300 | 180 | 6.33 | 167 | 180 | 1.5 | 207 | 8.2 | – | –
B3 | – | – | 1.72e-10 | 0.853 | 2.7e-10 | 9.58 | – | 0.251 | 235 | 48 | 3.05 | 50.9 | 58.9 | 3.87 | 144 | 3.5 | – | Kd [16]: 272 nM; t½ (dissociative half-life) [16]: 1.7 min; Kd [17]: 0.217 nM; t½ (dissociative half-life) [17]: 182 min; EC50 [18]: 9.34 nM; Kd [19]: 0.396 nM; t½ (dissociative half-life) [19]: 146 min
B4 | – | – | 3.27e-09 | – | 8.69e-09 | – | – | – | – | – | – | – | – | – | – | 3.5 | no binding (tested: 10 nM) | binding result [20]: no binding; NFκB-luciferase EC50, reporter T-cells + HEK293/hCD20, 50 pM anti-CD3×CD20 [3]: 3.59e-09 M; IL-2 production EC50, primary CD4+ T-cells + HEK293/hCD20, 50 pM anti-CD3×CD20 [5]: 6.05e-09 M; NFκB-luciferase EC50, reporter T-cells + HEK293/hCD20, 50 pM hIgG4 isotype control (no TCR stimulation) [6]: 5.11e-09 M; NFκB-luciferase EC50, reporter T-cells + HEK293/hCD20/hPSMA, 50 pM hIgG4 isotype control (no TCR stimulation) [6]: 4.9e-09 M
B5 | – | – | – | – | – | – | – | – | – | – | – | – | – | – | – | 8.2 | no binding (tested: 10 nM) | binding result [4]: no binding (tested: ratio to HEK293HZ less than 3 at 11.1 nM)
B6 | 4 | < 1 | – | – | – | – | 0.738 | – | – | – | – | – | – | – | – | – | – | binding result [7]: no binding (tested: ratio to HEK293HZ less than 3 at 11.1 nM)
